This note sets out measurements from the Human Domainome abundance scans (Beltran et al. 2025).

± gives the uncertainty stated by the source.

The labels stand for the following.
B1: Nucleolar transcription factor 1, residues 408 to 469; numbered along this chain, P17480 (parent)
chain: KRPVSAMFIFSEEKRRQLQEERPELSESELTRLLARMWNDLSEKKKAKYKAREAALKAQSER

This data set covers variants of B1. Nature of the data set: abundance fitness (aPCA) (normalised: wild type 0, dead -1); higher = more abundant; growth selection in yeast, the domain comes from the species named. To be noted: Homo sapiens.
Turning to KRPVSAMFIFSEEKRRQLQEERPELSCSELTRLLARMWNDLSEKKKAKYKAREAALKAQSER, the abundance fitness is -0.165 ± 0.1.

Take KRPVSAMFIFSEEKRRQLQEERPELSASELTRLLARMWNDLSEKKKAKYKAREAALKAQSER: the abundance fitness is -0.143 ± 0.06.

Turning to KRPVSAMFIFSEEKRRQLQEERPELSHSELTRLLARMWNDLSEKKKAKYKAREAALKAQSER, the abundance fitness is -0.4 ± 0.12.

KRPVSAMFIFSEEKRRQLQEERPELSNSELTRLLARMWNDLSEKKKAKYKAREAALKAQSER: the abundance fitness was -0.33 ± 0.19.

Consider KRPVSAMFIFSEEKRRQLQEERPELSTSELTRLLARMWNDLSEKKKAKYKAREAALKAQSER, for which the abundance fitness is -0.133 ± 0.072.

Regarding KRPVSAMFIFSEEKRRQLQEERPELSDSELTRLLARMWNDLSEKKKAKYKAREAALKAQSER, the abundance fitness is 0.037 ± 0.1.

Turning to KRPVSAMFIFSEEKRRQLQEERPELSQSELTRLLARMWNDLSEKKKAKYKAREAALKAQSER, the abundance fitness was -0.121 ± 0.12.

On to KRPVSAMFIFSEEKRRQLQEERPELSFSELTRLLARMWNDLSEKKKAKYKAREAALKAQSER, for which the abundance fitness was -0.212 ± 0.091.

With KRPVSAMFIFSEEKRRQLQEERPELSYSELTRLLARMWNDLSEKKKAKYKAREAALKAQSER, the abundance fitness is -0.108 ± 0.1.

Regarding KRPVSAMFIFSEEKRRQLQEERPELSKSELTRLLARMWNDLSEKKKAKYKAREAALKAQSER, the abundance fitness was -0.148 ± 0.089.

As for KRPVSAMFIFSEEKRRQLQEERPELSGSELTRLLARMWNDLSEKKKAKYKAREAALKAQSER, the abundance fitness was -0.09 ± 0.067.

On to KRPVSAMFIFSEEKRRQLQEERPELSSSELTRLLARMWNDLSEKKKAKYKAREAALKAQSER, for which the abundance fitness was -0.178 ± 0.06.

KRPVSAMFIFSEEKRRQLQEERPELSVSELTRLLARMWNDLSEKKKAKYKAREAALKAQSER: the abundance fitness is -0.201 ± 0.055.

On to KRPVSAMFIFSEEKRRQLQEERPELSMSELTRLLARMWNDLSEKKKAKYKAREAALKAQSER, for which the abundance fitness is -0.358 ± 0.085.

In the case of KRPVSAMFIFSEEKRRQLQEERPELSPSELTRLLARMWNDLSEKKKAKYKAREAALKAQSER, the abundance fitness was -0.067 ± 0.066.

Turning to KRPVSAMFIFSEEKRRQLQEERPELSWSELTRLLARMWNDLSEKKKAKYKAREAALKAQSER, the abundance fitness was -0.328 ± 0.11.

Consider KRPVSAMFIFSEEKRRQLQEERPELMESELTRLLARMWNDLSEKKKAKYKAREAALKAQSER, for which the abundance fitness was -0.052 ± 0.088.

On to KRPVSAMFIFSEEKRRQLQEERPELRESELTRLLARMWNDLSEKKKAKYKAREAALKAQSER, for which the abundance fitness is -0.157 ± 0.059.

Turning to KRPVSAMFIFSEEKRRQLQEERPELYESELTRLLARMWNDLSEKKKAKYKAREAALKAQSER, the abundance fitness is -0.536 ± 0.2.

Turning to KRPVSAMFIFSEEKRRQLQEERPELEESELTRLLARMWNDLSEKKKAKYKAREAALKAQSER, the abundance fitness was -0.109 ± 0.062.

Regarding KRPVSAMFIFSEEKRRQLQEERPELNESELTRLLARMWNDLSEKKKAKYKAREAALKAQSER, the abundance fitness was -0.1 ± 0.1.

For KRPVSAMFIFSEEKRRQLQEERPELTESELTRLLARMWNDLSEKKKAKYKAREAALKAQSER, the abundance fitness was -0.144 ± 0.089.

KRPVSAMFIFSEEKRRQLQEERPELPESELTRLLARMWNDLSEKKKAKYKAREAALKAQSER: the abundance fitness was -0.16 ± 0.09.

As to KRPVSAMFIFSEEKRRQLQEERPELIESELTRLLARMWNDLSEKKKAKYKAREAALKAQSER, the abundance fitness was -0.29 ± 0.17.

For the variant KRPVSAMFIFSEEKRRQLQEERPELKESELTRLLARMWNDLSEKKKAKYKAREAALKAQSER, the abundance fitness is -0.476 ± 0.18.

Regarding KRPVSAMFIFSEEKRRQLQEERPELDESELTRLLARMWNDLSEKKKAKYKAREAALKAQSER, the abundance fitness is -0.157 ± 0.098.

On to KRPVSAMFIFSEEKRRQLQEERPELLESELTRLLARMWNDLSEKKKAKYKAREAALKAQSER, for which the abundance fitness was -0.231 ± 0.07.

As to KRPVSAMFIFSEEKRRQLQEERPELQESELTRLLARMWNDLSEKKKAKYKAREAALKAQSER, the abundance fitness is -0.104 ± 0.085.

With KRPVSAMFIFSEEKRRQLQEERPELFESELTRLLARMWNDLSEKKKAKYKAREAALKAQSER, the abundance fitness was -0.592 ± 0.11.

Regarding KRPVSAMFIFSEEKRRQLQEERPELCESELTRLLARMWNDLSEKKKAKYKAREAALKAQSER, the abundance fitness was -0.263 ± 0.18.

As for KRPVSAMFIFSEEKRRQLQEERPELHESELTRLLARMWNDLSEKKKAKYKAREAALKAQSER, the abundance fitness is -0.182 ± 0.1.

In the case of KRPVSAMFIFSEEKRRQLQEERPELWESELTRLLARMWNDLSEKKKAKYKAREAALKAQSER, the abundance fitness was -0.944 ± 0.094.

Turning to KRPVSAMFIFSEEKRRQLQEERPELAESELTRLLARMWNDLSEKKKAKYKAREAALKAQSER, the abundance fitness was -0.115 ± 0.056.

KRPVSAMFIFSEEKRRQLQEETPELSESELTRLLARMWNDLSEKKKAKYKAREAALKAQSER: the abundance fitness is -0.229 ± 0.075.

As for KRPVSAMFIFSEEKRRQLQEEVPELSESELTRLLARMWNDLSEKKKAKYKAREAALKAQSER, the abundance fitness was -0.29 ± 0.053.

Take KRPVSAMFIFSEEKRRQLQEEYPELSESELTRLLARMWNDLSEKKKAKYKAREAALKAQSER: the abundance fitness is -0.068 ± 0.07.

For KRPVSAMFIFSEEKRRQLQEEWPELSESELTRLLARMWNDLSEKKKAKYKAREAALKAQSER, the abundance fitness was -0.132 ± 0.062.

As to KRPVSAMFIFSEEKRRQLQEESPELSESELTRLLARMWNDLSEKKKAKYKAREAALKAQSER, the abundance fitness is -0.119 ± 0.05.

KRPVSAMFIFSEEKRRQLQEERKELSESELTRLLARMWNDLSEKKKAKYKAREAALKAQSER: the abundance fitness was -0.174 ± 0.062.

Consider KRPVSAMFIFSEEKRRQLQEERSELSESELTRLLARMWNDLSEKKKAKYKAREAALKAQSER, for which the abundance fitness was -0.21 ± 0.06.

For KRPVSAMFIFSEEKRRQLQEERQELSESELTRLLARMWNDLSEKKKAKYKAREAALKAQSER, the abundance fitness was -0.275 ± 0.078.

Turning to KRPVSAMFIFSEEKRRQLQEERFELSESELTRLLARMWNDLSEKKKAKYKAREAALKAQSER, the abundance fitness was -0.402 ± 0.09.

In the case of KRPVSAMFIFSEEKRRQLQEERGELSESELTRLLARMWNDLSEKKKAKYKAREAALKAQSER, the abundance fitness was -0.254 ± 0.058.
